Laboratory results reported in patent publication US20240262917A1, “ANTIBODIES AGAINST ALK AND METHODS OF USE THEREOF” (Dana-Farber Cancer Institute, Inc., priority 2021, published 2024).

Assays:
MMP-9 = MMP-9 (Homo sapiens, UniProt P14780); conditions: cited from earlier work
[1] = target: T1, ALK extracellular fragment (Homo sapiens, UniProt Q9UM73); assay: Sandwich ELISA of shed ALK ECD in patient sera; assay type: binding; conditions: sera of patients with ALK-expressing neuroblastoma
T1 construct: conditioned media containing the shed ALK (ALK 1-654) ECD fragment; from tissue; host or cells: serum of neuroblastoma patients
T1 sequence (Q9UM73 19-654): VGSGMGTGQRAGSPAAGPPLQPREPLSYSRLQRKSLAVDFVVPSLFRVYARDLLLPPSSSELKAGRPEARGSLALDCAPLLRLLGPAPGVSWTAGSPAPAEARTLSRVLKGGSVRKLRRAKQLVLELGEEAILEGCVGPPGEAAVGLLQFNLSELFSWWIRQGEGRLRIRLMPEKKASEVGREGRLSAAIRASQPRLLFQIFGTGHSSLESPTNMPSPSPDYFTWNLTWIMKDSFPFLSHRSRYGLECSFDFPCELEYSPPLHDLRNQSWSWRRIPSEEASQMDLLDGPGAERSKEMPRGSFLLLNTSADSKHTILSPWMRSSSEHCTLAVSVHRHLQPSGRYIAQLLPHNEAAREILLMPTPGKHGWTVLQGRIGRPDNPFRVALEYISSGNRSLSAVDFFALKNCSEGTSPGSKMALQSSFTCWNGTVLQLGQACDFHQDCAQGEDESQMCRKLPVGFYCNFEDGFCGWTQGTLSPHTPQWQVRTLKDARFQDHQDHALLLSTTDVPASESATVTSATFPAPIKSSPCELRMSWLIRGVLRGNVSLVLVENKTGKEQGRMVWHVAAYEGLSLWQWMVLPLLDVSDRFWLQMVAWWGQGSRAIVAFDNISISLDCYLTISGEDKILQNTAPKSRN
From the text: Detection of the purified ALK-ECD protein using 8G7 (detection) and 7F7 (capture) anti-ALK antibodies by sandwich ELISA. (A) Standard curve showing the gradual increase in signal with increasing concentrations of the ALK-ECD protein in the media of NGP cells that express cleaved ALK. Quantification is shown below. (B) ELISA of the shed ALK ECD protein in sera from patients with neuroblastoma. Ample diluent buffer was used to dilute the serum samples, Media represents Dulbecco's Modified Eagle media in which human embryonic kidney 293T cells were grown, 293T media, conditioned media from 293T cells; ALK ECD 293T media, media collected from 293T cells in which the ALK-ECD-mFc protein was overexpressed.
We developed a sandwich ELISA technique where two ALK antibodies (for example, 5H3 or 7F7) can be used to capture the ALK extracellular fragment (antigen), and another antibody, such as the 8G7 antibody, can be used to detect the captured ALK extracellular fragment-5H3 or 7F7 complex. The different epitope binding sites of these antibodies on the ALK extracellular fragment protein allow for the development of the sandwich ELISA technique for the detection of the cleaved or shed ALK extracellular fragment in patient serum samples (FIG. 18). […]

ALK [2] = assay: Western blot analysis of ALK in cell lysates and conditioned media; assay type: binding, human
From the text: (§1) (A) Western blot analysis of ALK in Kelly and SHEP neuroblastoma cells overexpressing GFP and mutated ALK using the mAb-7 and 8G7 anti-ALK antibodies. The mAb-7 antibody was developed at the Vigny laboratory (INSERM, Unité 706/Université Pierre et Marie Curie, Paris F-75005, France) (Moog-Lutz et al, 2005; PMID: 15886198) and obtained through a Materials Transfer Agreement. (B) Western blot analysis of ALK expression in various non-neuroblastoma cell lines: H1373 (human […]), HeLa (cervical cancer), NIH-3T3 (transformed mouse fibroblast cells) using 8G7 and C26G7 (rabbit monoclonal C-terminal anti-ALK antibody; Cell Signaling Technology; Cat #3333; RRID:AB_836862) anti-ALK antibodies.
(§2) The three HPLC-purified monoclonal antibodies (5H3, 7F7 and 8G7) all of the IgG1 subtype, were tested for their ability to bind to ALK in neuroblastoma cells expressing ALK. Both cell lysates and supernatants from cells grown with and without serum (to increase the expression of ALK) were tested by western blotting. […] (A) Western blot analysis of the indicated hybridoma clones in neuroblastoma cell lines expressing WT (NGP) and mutated (SHSY5Y, Kelly) ALK. NIH3T3 cells were used as controls. (B) Western blot analysis of conditioned media from NGP neuroblastoma and 293T cells engineered to express the WT ALK receptor, with the three ALK mAbs showing binding with the shed ALK extracellular domain. […]
Cell lysates were prepared in NP-40 buffer (Invitrogen) containing complete protease inhibitor (Roche), phosphatase inhibitor (Roche) and phenylmethylsulfonyl fluoride (PMSF). Lysates were incubated on ice for 20 min and centrifuged at 16,000 g for 15 min at 4° C. Protein concentrations of the supernatants were determined with the DC protein assay kit (Bio-Rad). Protein samples were denatured using NuPAGE LDS sample buffer (Invitrogen) and NuPAGE sample reducing agent (Invitrogen). Proteins were then separated on precast 4-12% Bis-Tris gels (Invitrogen) and transferred to nitrocellulose membranes (Bio-Rad). […]

ALK [3] = target: T2, ALK (Homo sapiens, UniProt Q9UM73); assay: Screening and subcloning of hybridomas (ELISA, FCM, functional assays); assay type: binding; design: The human ALK extracellular domain (19-682 aa) fused to the mouse Fc gene; made in house; host or cells: 293T cells; conditions: after subcloning by limiting dilution
Description: HAT-selected fused cells were distributed in 96 well plates and the hybridoma supernatants were subjected to several rounds of screening. Initial screening was performed using ELISA against human Fc to test antigen binding with the ALK ECD-human Fc fusion protein. […] These were rescreened by FACS against Ba/F3 and neuroblastoma (NB) cells expressing ALK. From this screen, 22 positive hybridoma supernatants were tested in an antigen-binding capture ELISA assay and 11 were subsequently selected for further analysis. (A) Binding of hybridoma supernatants using an antigen-binding capture assay. The plate was coated with goat-anti-mouse IgG Fc, incubated with hybridoma supernatants, followed by ALK-HRP and visualized using an HRP substrate. (B) Binding of selected hybridoma supernatants to a human Fc antibody using ELISA screening. Plates were coated with the ALK ECD-human Fc fusion protein (ALK-hFc) together with an irrelevant hFc protein and visualized using an anti-mouse kappa light chain antibody. Only the supernatants with the highest binding are shown.
Supernatants from individual clones were then screened by ELISA and FACS analysis for ALK binding. Shown here is the viability of NGP neuroblastoma cells (expressing ALK) in the presence of anti-mouse IgG antibody in hybridoma clone supernatants. […]
Target sequence in this assay (Q9UM73 19-682): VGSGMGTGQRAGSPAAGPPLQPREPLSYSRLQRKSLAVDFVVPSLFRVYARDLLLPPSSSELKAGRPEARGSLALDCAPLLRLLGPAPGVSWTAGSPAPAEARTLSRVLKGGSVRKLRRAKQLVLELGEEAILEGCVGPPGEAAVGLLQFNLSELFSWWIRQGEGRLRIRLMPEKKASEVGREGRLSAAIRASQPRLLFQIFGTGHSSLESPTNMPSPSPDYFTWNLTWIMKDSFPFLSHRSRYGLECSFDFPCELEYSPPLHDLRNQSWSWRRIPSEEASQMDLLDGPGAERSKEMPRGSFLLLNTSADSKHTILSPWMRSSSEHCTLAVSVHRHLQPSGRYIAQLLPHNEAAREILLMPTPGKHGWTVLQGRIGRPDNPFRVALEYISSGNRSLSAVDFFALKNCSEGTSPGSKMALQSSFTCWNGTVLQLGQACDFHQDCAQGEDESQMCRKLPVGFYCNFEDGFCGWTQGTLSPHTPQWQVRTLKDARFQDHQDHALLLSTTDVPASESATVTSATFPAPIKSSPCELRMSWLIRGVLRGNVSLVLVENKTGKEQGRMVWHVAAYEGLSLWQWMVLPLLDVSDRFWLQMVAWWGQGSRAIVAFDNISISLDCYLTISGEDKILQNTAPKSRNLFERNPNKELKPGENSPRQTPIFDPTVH

ALK [4] = target: T2, ALK; assay: Western blot analysis of ALK in cell lysates and conditioned media; assay type: binding; design: endogenous in cells; host or cells: human neuroblastoma lines (NGP, SH-SY5Y, Kelly and others)
From the text: as §1, §2
Cell lysates were prepared in NP-40 buffer (Invitrogen) containing complete protease inhibitor (Roche), phosphatase inhibitor (Roche) and phenylmethylsulfonyl fluoride (PMSF). Lysates were incubated on ice for 20 min and centrifuged at 16,000 g for 15 min at 4° C. Protein concentrations of the supernatants were determined with the DC protein assay kit (Bio-Rad). Protein samples were denatured using NuPAGE LDS sample buffer (Invitrogen) and NuPAGE sample reducing agent (Invitrogen). Proteins were then separated on precast 4-12% Bis-Tris gels (Invitrogen) and transferred to nitrocellulose membranes (Bio-Rad). After blocking in blocking buffer (5% dry milk in TBS with 0.2% Tween-20), membranes were incubated with the primary antibody overnight at 4 °C, washed three times with TBST buffer, chemiluminescent detection performed with the appropriate secondary antibodies and developed using Genemate Blue ultra-autoradiography film (VWR).

full-length ALK receptor = target: T3, full-length ALK receptor (Homo sapiens, UniProt Q9UM73); assay: Immunoprecipitation of ALK from neuroblastoma cell lysates; assay type: binding; conditions: immunoblotting with commercial anti-ALK C-terminal antibody
T3 construct: endogenous in cells
T3 sequence (Q9UM73 19-1620): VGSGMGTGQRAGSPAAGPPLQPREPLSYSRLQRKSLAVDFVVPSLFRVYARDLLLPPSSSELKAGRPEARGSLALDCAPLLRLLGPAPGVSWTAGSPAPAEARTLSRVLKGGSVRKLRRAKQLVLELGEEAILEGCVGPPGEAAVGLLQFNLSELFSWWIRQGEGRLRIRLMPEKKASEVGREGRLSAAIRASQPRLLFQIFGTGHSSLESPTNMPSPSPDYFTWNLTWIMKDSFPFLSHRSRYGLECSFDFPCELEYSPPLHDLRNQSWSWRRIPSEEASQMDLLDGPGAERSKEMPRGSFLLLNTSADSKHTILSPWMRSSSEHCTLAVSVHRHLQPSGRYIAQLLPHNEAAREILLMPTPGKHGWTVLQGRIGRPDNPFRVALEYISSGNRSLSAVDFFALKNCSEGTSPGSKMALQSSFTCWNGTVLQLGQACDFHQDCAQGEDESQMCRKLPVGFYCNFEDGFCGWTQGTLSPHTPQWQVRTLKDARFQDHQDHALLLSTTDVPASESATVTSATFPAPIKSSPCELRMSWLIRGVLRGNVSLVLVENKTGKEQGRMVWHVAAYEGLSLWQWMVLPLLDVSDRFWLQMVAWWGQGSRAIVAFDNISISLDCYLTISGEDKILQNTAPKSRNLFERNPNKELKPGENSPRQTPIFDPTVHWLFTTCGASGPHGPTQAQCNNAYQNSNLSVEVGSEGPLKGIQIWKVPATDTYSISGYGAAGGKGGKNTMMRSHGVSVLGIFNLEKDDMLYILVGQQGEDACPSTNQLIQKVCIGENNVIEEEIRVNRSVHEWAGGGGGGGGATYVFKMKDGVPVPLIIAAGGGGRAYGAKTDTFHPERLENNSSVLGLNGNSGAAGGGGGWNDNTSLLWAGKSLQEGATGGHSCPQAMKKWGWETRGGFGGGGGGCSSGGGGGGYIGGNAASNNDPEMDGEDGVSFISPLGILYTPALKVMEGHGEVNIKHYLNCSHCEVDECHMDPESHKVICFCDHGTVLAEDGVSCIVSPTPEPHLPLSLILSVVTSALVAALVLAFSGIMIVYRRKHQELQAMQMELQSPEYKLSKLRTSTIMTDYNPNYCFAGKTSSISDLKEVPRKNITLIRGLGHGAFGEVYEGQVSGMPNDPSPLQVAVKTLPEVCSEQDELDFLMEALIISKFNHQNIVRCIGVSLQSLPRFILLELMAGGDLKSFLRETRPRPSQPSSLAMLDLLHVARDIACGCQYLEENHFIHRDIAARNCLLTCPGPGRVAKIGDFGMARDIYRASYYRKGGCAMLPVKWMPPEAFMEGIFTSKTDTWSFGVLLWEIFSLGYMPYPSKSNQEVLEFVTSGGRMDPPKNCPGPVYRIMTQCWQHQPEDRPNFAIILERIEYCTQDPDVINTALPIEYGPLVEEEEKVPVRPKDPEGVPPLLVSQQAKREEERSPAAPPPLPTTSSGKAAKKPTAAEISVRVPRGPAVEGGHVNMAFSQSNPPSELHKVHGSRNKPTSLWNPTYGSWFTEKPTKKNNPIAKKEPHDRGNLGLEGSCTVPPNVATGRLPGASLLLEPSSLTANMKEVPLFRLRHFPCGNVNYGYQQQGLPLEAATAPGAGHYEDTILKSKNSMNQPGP
From the text: Cell lysates from the indicated neuroblastoma cell lines were subjected to immunoprecipitation (IP) using 8G7 and subsequently to immunoblotting analysis using the commercial anti-ALK C-terminal antibody.

MMP-9, sequence (P14780 94-707): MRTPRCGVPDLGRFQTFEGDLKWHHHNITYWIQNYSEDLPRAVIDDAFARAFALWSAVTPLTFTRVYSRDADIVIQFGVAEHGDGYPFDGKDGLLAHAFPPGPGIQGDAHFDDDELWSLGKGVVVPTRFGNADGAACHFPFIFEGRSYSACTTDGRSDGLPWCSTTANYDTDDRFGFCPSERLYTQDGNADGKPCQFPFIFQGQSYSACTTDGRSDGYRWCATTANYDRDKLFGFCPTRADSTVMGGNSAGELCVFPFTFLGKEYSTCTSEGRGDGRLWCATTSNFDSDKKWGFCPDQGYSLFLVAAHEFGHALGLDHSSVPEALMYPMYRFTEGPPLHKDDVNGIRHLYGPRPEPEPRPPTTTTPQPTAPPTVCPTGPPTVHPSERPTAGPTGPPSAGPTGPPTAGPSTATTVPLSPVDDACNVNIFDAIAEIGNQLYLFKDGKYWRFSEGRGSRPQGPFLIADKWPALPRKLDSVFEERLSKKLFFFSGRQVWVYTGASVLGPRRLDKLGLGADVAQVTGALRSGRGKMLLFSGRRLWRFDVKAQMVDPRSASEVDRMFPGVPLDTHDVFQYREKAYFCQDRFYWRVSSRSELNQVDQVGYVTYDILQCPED

B1: andecaliximab: selective MMP-9 antibody (Gilead) (antibody, chains of the INN, looked up, V domains shown)
VH: QVQLQESGPGLVKPSETLSLTCTVSGFSLLSYGVHWVRQPPGKGLEWLGVIWTGGTTNYNSALMSRFTISKDDSKNTVYLKMNSLKTEDTAIYYCARYYYGMDYWGQGTLVTVSS
VL: DIQMTQSPSSLSASVGDRVTITCKASQDVRNTVAWYQQKPGKAPKLLIYSSSYRNTGVPDRFSGSGSGTDFTLTISSLQAEDVAVYYCQQHYITPYTFGGGTKVEIK
clinical activity (MMP-9; combined with standard chemotherapy, gastric and gastroesophageal junction adenocarcinoma): showed activity when combined with standard chemotherapy
target engagement and dose-limiting toxicity (MMP-9; patients with gastric and gastroesophageal junction adenocarcinoma): achieved target engagement without dose-limiting toxicity

B2: 5H3: murine monoclonal IgG1 anti-ALK antibody; VH SEQ ID NO: 13, VL SEQ ID NO: 14 (antibody)
heavy: MEWSWVFLFLLSVIAGVQSQVQLQQSGAELVRPGASVTLSCKASGYTFTDYEMHWVKQTPVHGLEWIGAIDPETGGSAYNQKFKAKAILTADRSSSTAYMELRSLTSEDSAVYYCTRTRYYGSSPAMDYWGQGTSVTVSSAKTTPPSVYPLAPGSAAQTNSMVTLGCLVKGYFPEPVTVTWNSGSLSSGVHTFPAVLQSDLYTLSSSVTVPSS
light: MSSAQFLGLLLLCFQGTRCDIQMTQTTSSLSASLGDRVTISCSASQGIGNYLNWYQQKPDGTVKLLIYYTSSLHSGVPSRFSGSGSGTDYSLTISNLEPEDIATYYCQQYSKLPYTFGGGTKLEIKRADAAPTVSIFPPSSEQLTSGGASVVCFLNNFYPKDINVKWKIDGSERQNGVLNSWTDQDSKDSTYSMSSTLTLTK
recognition of circulating ALK extracellular fragment in sera [1]: recognize the circulating ALK extracellular fragment in the sera of patients with ALK-expressing neuroblastoma
recognition of ALK in immunoblotting assays (ALK [2]): recognize ALK in immunoblotting assays
ALK specificity of the clone's monoclonal antibody (ALK [3]): high ALK specificity
ALK protein recognized by western blotting in cell lysates (ALK [4]; cell lysates of neuroblastoma cells expressing ALK): recognized a 220 kDa protein in the cell lysates of neuroblastoma cells
ALK protein recognized by western blotting in media (ALK [4]; conditioned media of NB cells, shed ECD domain): an approximately 100 kDa protein in the media
immunoprecipitation of ALK (full-length ALK receptor): can immunoprecipitate ALK
